± gives the standard error. Fewer inactive variants are shown than the library holds.
B1: glmS ribozyme (parent)
chain: AUAAAAGCGCCAGAACUACAGAAAUGUAGUUGACGAGGAGGAGGUUUAUCGAAUUUUCGGCGGAUGCCUCCAAA

Key:
Settings in all cases: with glucosamine-6-phosphate
glucosamine-6-phosphate [1] = variants of: B1; test: self-cleavage kobs at 40 uM GlcN6P; higher = faster cleavage; RNA array
Outline: (§1)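 kcat and KM were obtained from weighted Michaelis–Menten fits across concentrations of kobs values. Those came from one- or two-exponential decay fits to per-tile medians normalised to baseline and to non-cleaving reference variants. The variants were barcoded ribozymes transcribed in situ by E. coli RNA polymerase on sequenced MiSeq chips and tracked through a hybridised Cy3 probe at 37 °C, with 40 μM to 10 mM glucosamine-6-phosphate in HEPES/KCl/Mg(OAc)2 buffer flowed in.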

glucosamine-6-phosphate [2] = variants of: B1; test: self-cleavage kobs at 2500 uM GlcN6P; higher = faster cleavage; RNA array
Outline: as §1

glucosamine-6-phosphate [3] = variants of: B1; test: self-cleavage kobs at 10000 uM GlcN6P; higher = faster cleavage; RNA array
Outline: as §1

glucosamine-6-phosphate [4] = variants of: B1; test: self-cleavage kobs at 160 uM GlcN6P; higher = faster cleavage; RNA array
Outline: as §1

glucosamine-6-phosphate [5] = variants of: B1; test: self-cleavage kobs at 640 uM GlcN6P; higher = faster cleavage; RNA array
Outline: as §1

## C10U G37C A42C
glucosamine-6-phosphate [1]
  self-cleavage kobs at 40 uM GlcN6P: < 1e-05 s⁻¹
glucosamine-6-phosphate [2]
  self-cleavage kobs at 2500 uM GlcN6P: < 1e-05 s⁻¹
glucosamine-6-phosphate [3]
  self-cleavage kobs at 10000 uM GlcN6P: < 1e-05 s⁻¹

## C11U U30C A52C
glucosamine-6-phosphate [1]
  self-cleavage kobs at 40 uM GlcN6P: < 1e-05 s⁻¹

## C11U G41C
glucosamine-6-phosphate [1]
  self-cleavage kobs at 40 uM GlcN6P: < 1e-05 s⁻¹
glucosamine-6-phosphate [4]
  self-cleavage kobs at 160 uM GlcN6P: < 1e-05 s⁻¹

## C10U U31A A53C U55G
glucosamine-6-phosphate [1]
  self-cleavage kobs at 40 uM GlcN6P: < 1e-05 s⁻¹

## C10U U45A G51U C67A
glucosamine-6-phosphate [1]
  self-cleavage kobs at 40 uM GlcN6P: < 1e-05 s⁻¹

## C10U G38C
glucosamine-6-phosphate [1]
  self-cleavage kobs at 40 uM GlcN6P: < 1e-05 s⁻¹
glucosamine-6-phosphate [4]
  self-cleavage kobs at 160 uM GlcN6P: < 1e-05 s⁻¹

## C11A G41A C50G G59U
glucosamine-6-phosphate [1]
  self-cleavage kobs at 40 uM GlcN6P: < 1e-05 s⁻¹
glucosamine-6-phosphate [3]
  self-cleavage kobs at 10000 uM GlcN6P: < 1e-05 s⁻¹

## C11G G40A A42G C58U C67G C68A
glucosamine-6-phosphate [1]
  self-cleavage kobs at 40 uM GlcN6P: 0.00042 ± 9.3e-05 s⁻¹
glucosamine-6-phosphate [3]
  self-cleavage kobs at 10000 uM GlcN6P: 0.000191 ± 3.9e-05 s⁻¹

## C10U G62A
glucosamine-6-phosphate [1]
  self-cleavage kobs at 40 uM GlcN6P: < 1e-05 s⁻¹
glucosamine-6-phosphate [5]
  self-cleavage kobs at 640 uM GlcN6P: < 1e-05 s⁻¹
glucosamine-6-phosphate [3]
  self-cleavage kobs at 10000 uM GlcN6P: < 1e-05 s⁻¹

## C11G G66U
glucosamine-6-phosphate [1]
  self-cleavage kobs at 40 uM GlcN6P: < 1e-05 s⁻¹
glucosamine-6-phosphate [2]
  self-cleavage kobs at 2500 uM GlcN6P: < 1e-05 s⁻¹

## C11U G29U C50U C71G
glucosamine-6-phosphate [1]
  self-cleavage kobs at 40 uM GlcN6P: 4.57e-05 ± 2.1e-05 s⁻¹

## C11U G37U G43U G63U
glucosamine-6-phosphate [1]
  self-cleavage kobs at 40 uM GlcN6P: < 1e-05 s⁻¹
glucosamine-6-phosphate [2]
  self-cleavage kobs at 2500 uM GlcN6P: < 1e-05 s⁻¹
glucosamine-6-phosphate [3]
  self-cleavage kobs at 10000 uM GlcN6P: < 1e-05 s⁻¹

## C11A A12U A52U
glucosamine-6-phosphate [1]
  self-cleavage kobs at 40 uM GlcN6P: < 1e-05 s⁻¹

## C10U U55G
glucosamine-6-phosphate [1]
  self-cleavage kobs at 40 uM GlcN6P: < 1e-05 s⁻¹
glucosamine-6-phosphate [4]
  self-cleavage kobs at 160 uM GlcN6P: < 1e-05 s⁻¹
glucosamine-6-phosphate [3]
  self-cleavage kobs at 10000 uM GlcN6P: 2.49e-05 ± 9.6e-06 s⁻¹

## C10U G63U C70U
glucosamine-6-phosphate [1]
  self-cleavage kobs at 40 uM GlcN6P: < 1e-05 s⁻¹
glucosamine-6-phosphate [3]
  self-cleavage kobs at 10000 uM GlcN6P: < 1e-05 s⁻¹

## C11G G62A
glucosamine-6-phosphate [1]
  self-cleavage kobs at 40 uM GlcN6P: < 1e-05 s⁻¹

## C11A C34U G63C
glucosamine-6-phosphate [1]
  self-cleavage kobs at 40 uM GlcN6P: < 1e-05 s⁻¹
glucosamine-6-phosphate [5]
  self-cleavage kobs at 640 uM GlcN6P: < 1e-05 s⁻¹
glucosamine-6-phosphate [2]
  self-cleavage kobs at 2500 uM GlcN6P: < 1e-05 s⁻¹

## C10U G29U U56G
glucosamine-6-phosphate [1]
  self-cleavage kobs at 40 uM GlcN6P: < 1e-05 s⁻¹
glucosamine-6-phosphate [3]
  self-cleavage kobs at 10000 uM GlcN6P: < 1e-05 s⁻¹

## C11A A33G G43U G44A U54C
glucosamine-6-phosphate [1]
  self-cleavage kobs at 40 uM GlcN6P: < 1e-05 s⁻¹
glucosamine-6-phosphate [5]
  self-cleavage kobs at 640 uM GlcN6P: < 1e-05 s⁻¹
glucosamine-6-phosphate [3]
  self-cleavage kobs at 10000 uM GlcN6P: < 1e-05 s⁻¹

## C11U U49C G51U
glucosamine-6-phosphate [1]
  self-cleavage kobs at 40 uM GlcN6P: < 1e-05 s⁻¹

## C11A A14U G66U C67A
glucosamine-6-phosphate [1]
  self-cleavage kobs at 40 uM GlcN6P: < 1e-05 s⁻¹

## C11G C34A A64C
glucosamine-6-phosphate [1]
  self-cleavage kobs at 40 uM GlcN6P: < 1e-05 s⁻¹
glucosamine-6-phosphate [3]
  self-cleavage kobs at 10000 uM GlcN6P: < 1e-05 s⁻¹

## C10U G40A C67A
glucosamine-6-phosphate [1]
  self-cleavage kobs at 40 uM GlcN6P: < 1e-05 s⁻¹
glucosamine-6-phosphate [3]
  self-cleavage kobs at 10000 uM GlcN6P: < 1e-05 s⁻¹

## C11A U49G C67G
glucosamine-6-phosphate [1]
  self-cleavage kobs at 40 uM GlcN6P: 4.47e-05 ± 1.8e-05 s⁻¹

## C11A C34G
glucosamine-6-phosphate [1]
  self-cleavage kobs at 40 uM GlcN6P: < 1e-05 s⁻¹
glucosamine-6-phosphate [4]
  self-cleavage kobs at 160 uM GlcN6P: < 1e-05 s⁻¹
glucosamine-6-phosphate [5]
  self-cleavage kobs at 640 uM GlcN6P: < 1e-05 s⁻¹
glucosamine-6-phosphate [3]
  self-cleavage kobs at 10000 uM GlcN6P: < 1e-05 s⁻¹

## C11A G37C A39G G41A U47G
glucosamine-6-phosphate [1]
  self-cleavage kobs at 40 uM GlcN6P: < 1e-05 s⁻¹
glucosamine-6-phosphate [3]
  self-cleavage kobs at 10000 uM GlcN6P: < 1e-05 s⁻¹

## C11A A12C G38U U69A
glucosamine-6-phosphate [1]
  self-cleavage kobs at 40 uM GlcN6P: 0.000405 ± 0.00012 s⁻¹
glucosamine-6-phosphate [3]
  self-cleavage kobs at 10000 uM GlcN6P: 4.3e-05 ± 2e-05 s⁻¹

## C11U U31C U47C A52U
glucosamine-6-phosphate [1]
  self-cleavage kobs at 40 uM GlcN6P: < 1e-05 s⁻¹
glucosamine-6-phosphate [3]
  self-cleavage kobs at 10000 uM GlcN6P: < 1e-05 s⁻¹

## C11U G35A
glucosamine-6-phosphate [1]
  self-cleavage kobs at 40 uM GlcN6P: < 1e-05 s⁻¹
glucosamine-6-phosphate [4]
  self-cleavage kobs at 160 uM GlcN6P: < 1e-05 s⁻¹
glucosamine-6-phosphate [5]
  self-cleavage kobs at 640 uM GlcN6P: < 1e-05 s⁻¹
glucosamine-6-phosphate [2]
  self-cleavage kobs at 2500 uM GlcN6P: < 1e-05 s⁻¹
glucosamine-6-phosphate [3]
  self-cleavage kobs at 10000 uM GlcN6P: < 1e-05 s⁻¹

## C11U G35C
glucosamine-6-phosphate [1]
  self-cleavage kobs at 40 uM GlcN6P: < 1e-05 s⁻¹

— the supplement of paper PMC7125110
